Publication PMC5726920 (Nature chemical biology, 2017)

Molecular target: the molecule itself
Experiment: native MS

Row | Protein | stoichiometry N
1 | mitochondrial malate dehydrogenase (enzyme) AKVAVLGASGGIGQPLSLLLKNSPLVSRLTLYDIAHTPGVAADLSHIETKAAVKGYLGPEQLPDCLKGCDVVVIPAGVPRKPGMTRDDLFNTNATIVATLTAACAQHCPEAMICVIANPVNSTIPITAEVFKKHGVYNPNKIFGVTTLDIVRANTFVAELKGLDPARVNVPVIGGHAGKTIIPLISQCTPKVDFPQDQLTALTGRIQEAGTEVVKAKAGAGSATLSMAYAGARFVFSLVDAMNGKEGVVECSFVKSQETECTYFSTPLLLGKKGIEKNLGIGKVSSFEEKMISDAIPELKASIKKGEDFVKTLK | 2
2 | NAD(P)H-hydrate epimerase (enzyme) ASTVVKYLSQEEAQAVDQELFNEYQFSVDQLMELAGLSCATAIAKAYPPTSMSRSPPTVLVICGPGNNGGDGLVCARHLKLFGYEPTIYYPKRPNKPLFTALVTQCQKMDIPFLGEMPAEPMTIDELYELVVDAIFGFSFKGDVREPFHSILSVLKGLTVPIASIDIPSGWDVEKGNAGGIQPDLLISLTAPKKSATQFTGRYHYLGGRFVPPALEKKYQLNLPPYPDTECVYRLQ | 2
3 | murine cytosolic aspartate aminotransferase (enzyme) MAPPSVFAQVPQAPPVLVFKLTADFRDDPDPRKVNLGVGAYRTDESQPWVLPVVRKVEQKIANDNSLNHEYLPILGLAEFRSCASRLVLGDNSLAIRENRVGGVQSLGGTGALRIGADFLGRWYNGTDNKNTPIYVSSPTWENHNAVFSAAGFKDIRPYCYWDAEKRGLDLQGFLNDLENAPEFSIFVLHACAHNPTGTDPTPEQWKQIAAVMQRRFLFPFFDSAYQGFASGDLEKDAWAIRYFVSEGFELFCAQSFSKNFGLYNERVGNLTVVGKESDSVLRVLSQMEKIVRITWSNPPAQGARIVAATLSDPELFKEWKGNVKTMADRILTMRSELRARLEALKTPGTWSHITEQIGMFSFTGLNPKQVEYLVNEKHIYLLPSGRINMCGLTTKNLDYVATSIHEAVTKIQ | 2
4 | human mitochondrial superoxide dismutase (enzyme) KHSLPDLPYDYGALEPHINAQIMQLHHSKHHAAYVNNLNVTEEKYQEALAKGDVTAQIALQPALKFNGGGHINHSIFWTNLSPNGGGEPKGELLEAIKRDFGSFDKFKEKLTAASVGVQGSGWGWLGFNKERGHLQIAACPNQDPLQGTTGLIPLLGIDVWEHAYYLQYKNVRPDYLKAIWNVINWENVTERYMACKK | 4
5 | 3-hydroxyisobutyrate dehydrogenase (enzyme) ASKTPVGFIGLGNMGNPMAKNLMKHGYPLILYDVFPDVCKEFKEAGEQVASSPAEVAEKADRIITMLPSSMNAVEVYSGANGILKKVKKGSLLIDSSTIDPSVSKELAKEVEKMGAVFMDAPVSGGVGAARSGNLTFMVGGVEDEFAAAQELLECMGSNVVYCGAVGTGQSAKICNNMLLAISMIGTAEAMNLGIRSGLDPKLLAKILNMSSGRCWSSDTYNPVPGVMHGVPSSNNYQGGFGTTLMAKDLGLAQDSATSTKTPILLGSLAHQIYRMMCSKGYSKKDFSSVFQYLREEEPF | 4
6 | creatine kinase M from mouse heart (enzyme) not shown | 2
